Laboratory results reported in the supplement of paper PMC11908140.

B1: library; numbered along this chain (parent)
chain: MRKPRAAVGSGHRKQAASQEGRQKHAKNNSQAKPSACDGLARQPEEVVLQASVSSYHLFRDVAEVTAFRGSLLSWYDQEKRDLPWRRRAEDEMDLDRRAYAVWVSEVMLQQTQVATVINYYTGWMQKWPTLQDLASASLEEVNQLWAGLGYYSRGRRLQEGARKVVEELGGHMPRTAETLQQLLPGVGRYTAGAIASIAFGQATGVVDGNVARVLCRVRAIGADPSSTLVSQQLWGLAQQLVDPARPGDFNQAAMELGATVCTPQRPLCSQCPVESLCRARQRVEQEQLLASGSLSGSPDVEECAPNTGQCHLCLPPSEPWDQTLGVVNFPRKASRKPPREESSATCVLEQPGALGAQILLVQRPNSGLLAGLWEFPSVTWEPSEQLQRKALLQELQRWAGPLPATHLRHLGEVVHTFSHIKLTYQVYGLALEGQTPVTTVPPGARWLTQEEFHTAAVSTAMKKVFRVYQGQQPGTCMGSKRSQVSSPCSRKKPRMGQQVLDNFFRSHISTDAHSLNSAAQ

Variants of: B1
Experiment: 8OG:A repair function score (normalized; synonymous = 0, nonsense = -1) (normalized log-likelihood score); higher = more repair activity (WT-like)
Conditions: with 8OG:A DNA repair reporter (GFP) in HEK-293 MUTYH KO cells
Procedure, shortened: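 GFP+ (repair) and GFP− bins of viable mCherry+ cells were collected at 72 h from MUTYH knockout HEK-293 cells bearing lentiviral MUTYH cDNA NNN codon-scan libraries in 10 pg/ml doxycycline, co-transfected with an 8OG:A GFP repair reporter and mCherry. Tile amplicons were sequenced, and per-tile Rosace fitness scores were normalized to a repair function score anchored on synonymous and nonsense distributions. Synonymous medians were set to 0 and nonsense to -1, with variants under 300 counts per million at the start removed.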
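Further: cells sorted at 72 h after reporter transfection.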

8OG:A repair function score, by site and new letter:
G248: D -0.876, L -1.01, P -0.995, M -0.879, F -0.958, I -1.02, C -0.885, N -0.871, W -0.937, R -0.738, V -0.998, Q -0.882, Y -0.996, A -0.729, K -0.801, T -0.939, E -0.978, H -0.883, S -0.709
E256: T -0.514, C -0.939, P -1.07, L -0.906, I -0.901, G -0.676, R -0.814, A -0.756, F -0.679, S -0.507, V -1.14, H -1.34
A253: P -1.02, D -1.03, E -1.02, N -1.01, G -0.438, K -1.02, V -1, Q -1.02, R -1.01, Y -0.985, I -1.02, M -1.03, S -0.559, L -1.02, T -0.994, W -0.975, H -1.03, C -0.853, F -1.03
M255: N -1.03, E -0.876, V -0.846, Y -1.02, P -1, C -0.788, S -1.01, L -0.962, F -0.873, G -1.02, R -1.03, K -1.01, H -1.03, Q -0.993, T -0.883, W -1.04, D -1.03, A -0.993, I -0.363
V261: W -0.489, H -0.25, S -0.503, K -0.147, T -0.0821, C -0.11, M -0.124, Y -0.342, L -0.0765, R -0.0976, I -0.0723, P -0.891, E -0.804, F -0.278, Q -0.57, D -0.737, A -0.399, N -0.379, G -0.599
G258: K -1.14, V -1.2, F -1.24, S -1.05, P -1.06, T -1.21, Y -1.23, H -1.65, N -1.2, D -1.04, E -1.27, W -1.49, R -1.2, C -1.12, Q -1.21, M -1.19, L -1.12, I -1.02
A259: E -0.0308, K -0.197, V -0.765, H -0.138, R -0.0545, S -0.0739, Q 0.0355, C -0.242, L -0.889, N -0.257, M -0.739, I -0.953, D -1, P -1.09, G -0.148, Y -0.675, T -0.329, F -0.503, W -0.859
F250: L -0.595, W -0.258, D -1.01, R -1.01, E -1.03, C -0.435, N -0.903, M -0.607, A -0.516, P -1.03, Y 0.0779, S -0.385, K -1.03, H -0.485, V -0.797, G -0.867, I -0.896, T -0.65, Q -0.831
A254: E -0.62, Y -0.534, P -0.979, W -0.393, Q -0.213, H -0.175, D -0.87, T -2.58e-05, F 0.057, C -0.0862, G -0.374, L 0.114, K -0.725, N -0.427, V 0.0529, I 0.133, S -0.223, R -0.99, M 0.317
A245: H -0.134, C -0.113, T -0.0132, P -0.612, Q 0.0913, R -0.124, N -0.0246, M -0.146, Y -0.107, V 0.000414, K -0.0553, F 0.00779, E 0.644, I -0.104, L 0.157, G 0.0269, S 0.0557, D 0.223, W -0.0373
D249: Y -0.608, S -0.402, K -0.584, Q -0.428, G -0.675, N -0.673, F -0.75, P -0.588, T -0.459, A -0.31, R -0.663, W -0.851, C -0.396, V -0.579, L -0.649, M -0.419, I -0.596, H -0.28, E -0.208
T260: F -0.281, E -0.154, W -0.207, C -0.129, K -0.0184, I -0.0181, Y -0.385, L -0.00446, N -0.111, H -0.293, V -0.0429, M -0.0209, R -0.0323, D -0.355, S -0.104, Q -0.0253, A -0.056, G -0.126, P -1.17
P244: S -0.232, W -0.457, H -0.418, F -0.422, I -0.574, N -0.467, V -0.427, R -0.145, K 0.065, E -0.105, Y -0.542, G -0.385, L -0.398, T -0.234, Q -0.604
Q252: C -0.576, V -0.798, G -0.891, F -1.02, R -1.01, T -0.856, W -1.04, K -0.999, P -1, D -1.01, H -0.873, M -0.854, A -0.658, I -0.942, N -0.588, Y -0.982, E -0.386, S -0.483, L -0.863
L257: W -0.968, T -0.763, D -0.98, C -0.298, G -1.04, S -0.983, K -1.22, M -0.192, E -1.08, Y -0.76, Q -0.72, P -1, V -0.182, A -0.805, R -1.09, N -1.21, I -0.176, F -0.285, H -0.401
P247: E -0.987, H -0.982, T -0.856, I -0.969, G -0.799, N -1, L -1.02, Q -0.968, Y -1.04, W -1.03, M -0.978, D -1.03, S -0.584, F -1.01, V -0.95, K -1.03, C -0.799, A -0.379, R -1
C262: E -1.28, A -1.38, F -1.14, D -1.2
N251: A -0.847, M -0.915, P -1.02, S -0.903, H -0.943, T -0.798, L -0.938, I -0.889, F -1.03, R -1.02, Y -1.01, Q -0.901, E -1.02, G -0.951, D -0.947, C -0.884, W -0.879, V -0.84, K -0.983
R246: M -0.559, E -0.696, K -0.495, Y -0.517, P -0.964, S -0.535, H -0.449, F -0.68, C -0.646, D -0.657, L -0.719, V -0.732, N -0.471, A -0.605, T -0.728, G -0.845, I -0.836, W -0.645, Q -0.476
